The values that follow are results of earlier work, collected in paper PMC9085562.

Usually Kd stands for the concentration at which binding is half-saturated.

The target of data set [1] is H3K9me1 peptide (Homo sapiens) (UniProt P68431).
The target in data set [2] is H3K9me3 peptide (Homo sapiens) (UniProt P68431). Put plainly: fluorescence polarization. On the technique in general: In fluorescence polarisation assays a small probe gives low polarisation when free and higher when bound to something large.

As for Cbx1 (from UniProt P83916), the values for the Kd in data set [1] and in data set [2] were 12.5 µM and 3.2 µM, respectively.
